Results as given in article PMC7203112, “Structural basis for the complex DNA binding behavior of the plant stem cell regulator WUSCHEL”.
Where a chain is given by its changes, count along the chain named. Names may count otherwise.

Key:
[1] = biological target: T1, WUS-HD (Arabidopsis thaliana, UniProt Q9SB92 34-103); assay: EMSA; shift slightly modified; MST: 20 mM Tris-HCl pH 8.0, 75 mM NaCl, 10 mM MgCl2, 0.05% Tween-20, 20 C, 50 nM YFP-WUS; ITC: same without Tween, 20 C; EMSA: 10 mM Tris-HCl pH 8.0, 75 mM NaCl, 50 ug/ml poly(dI-dC), 1 mM EDTA, 1 mM DTT, 5% glycerol; settings: protein: recombinant; tags: none after TEV cleavage (from His6-MBP); label: Cy5; blunt
T1 sequence: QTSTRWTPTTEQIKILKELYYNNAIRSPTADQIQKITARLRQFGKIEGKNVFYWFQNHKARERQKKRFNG

[2] = biological target: T2, YFP-WUS-HD (Arabidopsis thaliana, UniProt Q9SB92 34-103); assay: MST; MST: 20 mM Tris-HCl pH 8.0, 75 mM NaCl, 10 mM MgCl2, 0.05% Tween-20, 20 C, 50 nM YFP-WUS; ITC: same without Tween, 20 C; EMSA: 10 mM Tris-HCl pH 8.0, 75 mM NaCl, 50 ug/ml poly(dI-dC), 1 mM EDTA, 1 mM DTT, 5% glycerol; settings: protein: recombinant; tags: N-terminal His6-YFP, C-terminal StrepII; blunt
T2 sequence: T1 sequence

[3] = biological target: T3, YFP-WUS-HD T35R (Arabidopsis thaliana, UniProt Q9SB92 34-103, T35R); assay: as above; settings: protein: recombinant; tags: N-terminal His6-YFP, C-terminal StrepII; blunt
T3 sequence: T1 sequence with T2R

[4] = biological target: T4, YFP-WUS-HD R94K (Arabidopsis thaliana, UniProt Q9SB92 34-103, R94K); assay: as above; settings: protein: recombinant; tags: N-terminal His6-YFP, C-terminal StrepII; blunt
T4 sequence: T1 sequence with R61K

[5] = biological target: T5, YFP-WUS-HD S36R (Arabidopsis thaliana, UniProt Q9SB92 34-103, S36R); assay: as above; settings: protein: recombinant; tags: N-terminal His6-YFP, C-terminal StrepII; blunt
T5 sequence: T1 sequence with S3R

[6] = biological target: T1, WUS-HD; assay: crystal structure; 2.8 A; two or three HD per DNA; MST: 20 mM Tris-HCl pH 8.0, 75 mM NaCl, 10 mM MgCl2, 0.05% Tween-20, 20 C, 50 nM YFP-WUS; ITC: same without Tween, 20 C; EMSA: 10 mM Tris-HCl pH 8.0, 75 mM NaCl, 50 ug/ml poly(dI-dC), 1 mM EDTA, 1 mM DTT, 5% glycerol; settings: protein: recombinant; tags: none after TEV cleavage (from His6-MBP); blunt
[7] = biological target: T6, MBP-WUS-FL (Arabidopsis thaliana, UniProt Q9SB92 1-292); assay: EMSA; MST: 20 mM Tris-HCl pH 8.0, 75 mM NaCl, 10 mM MgCl2, 0.05% Tween-20, 20 C, 50 nM YFP-WUS; ITC: same without Tween, 20 C; EMSA: 10 mM Tris-HCl pH 8.0, 75 mM NaCl, 50 ug/ml poly(dI-dC), 1 mM EDTA, 1 mM DTT, 5% glycerol; settings: protein: recombinant; tags: N-terminal His6-MBP; chain copies: 2; label: Cy5; blunt
T6 sequence: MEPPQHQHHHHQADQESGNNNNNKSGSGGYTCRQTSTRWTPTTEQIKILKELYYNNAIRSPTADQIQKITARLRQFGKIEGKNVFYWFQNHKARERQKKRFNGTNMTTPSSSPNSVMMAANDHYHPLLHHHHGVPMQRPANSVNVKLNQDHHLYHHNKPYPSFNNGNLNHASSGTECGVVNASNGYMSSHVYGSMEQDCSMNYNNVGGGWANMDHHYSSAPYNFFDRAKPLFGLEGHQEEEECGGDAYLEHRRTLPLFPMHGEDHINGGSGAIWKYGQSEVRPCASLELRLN

[8] = biological target: T1, WUS-HD; assay: ITC; first binding event (Kd,1), sequential model, 2:1; MST: 20 mM Tris-HCl pH 8.0, 75 mM NaCl, 10 mM MgCl2, 0.05% Tween-20, 20 C, 50 nM YFP-WUS; ITC: same without Tween, 20 C; EMSA: 10 mM Tris-HCl pH 8.0, 75 mM NaCl, 50 ug/ml poly(dI-dC), 1 mM EDTA, 1 mM DTT, 5% glycerol; settings: protein: recombinant; tags: none after TEV cleavage (from His6-MBP); blunt
[9] = biological target: T7, YFP-WUS-HD F101A (Arabidopsis thaliana, UniProt Q9SB92 34-103, F101A); assay: MST; MST: 20 mM Tris-HCl pH 8.0, 75 mM NaCl, 10 mM MgCl2, 0.05% Tween-20, 20 C, 50 nM YFP-WUS; ITC: same without Tween, 20 C; EMSA: 10 mM Tris-HCl pH 8.0, 75 mM NaCl, 50 ug/ml poly(dI-dC), 1 mM EDTA, 1 mM DTT, 5% glycerol; settings: protein: recombinant; tags: N-terminal His6-YFP, C-terminal StrepII; blunt
T7 sequence: T1 sequence with F68A

[10] = biological target: T8, YFP-WUS-HD I66A (Arabidopsis thaliana, UniProt Q9SB92 34-103, I66A); assay: as above; settings: protein: recombinant; tags: N-terminal His6-YFP, C-terminal StrepII; blunt
T8 sequence: T1 sequence with I33A

[11] = biological target: T9, YFP-WUS-HD F85A (Arabidopsis thaliana, UniProt Q9SB92 34-103, F85A); assay: as above; settings: protein: recombinant; tags: N-terminal His6-YFP, C-terminal StrepII; blunt
T9 sequence: T1 sequence with F52A

[12] = biological target: T1, WUS-HD; assay: EMSA; MST: 20 mM Tris-HCl pH 8.0, 75 mM NaCl, 10 mM MgCl2, 0.05% Tween-20, 20 C, 50 nM YFP-WUS; ITC: same without Tween, 20 C; EMSA: 10 mM Tris-HCl pH 8.0, 75 mM NaCl, 50 ug/ml poly(dI-dC), 1 mM EDTA, 1 mM DTT, 5% glycerol; settings: protein: recombinant; tags: none after TEV cleavage (from His6-MBP); label: Cy5; blunt

B1: f_TAAT T12C,T15C (dsDNA)
DNA 1: GTGTTAATGGGCTGCG
DNA 2: CGCAGCCCATTAACAC
B1: binds [1].

B2: 1xTGAA (dsDNA)
DNA 1: CGCCGGTGAAGCCGCC
DNA 2: GGCGGCTTCACCGGCG
For B2, the Kd [2] was 10500 ± 2300 nM.

B3: 3xTGAC (dsDNA)
DNA 1: CGTGACTGACTGACCC
DNA 2: GGGTCAGTCAGTCACG
With B3 the Kd [2] was 390 ± 50 nM.

B4: 2xTGAA 1xSpacing (dsDNA)
DNA 1: CGCTGAACTGAACGCC
DNA 2: GGCGTTCAGTTCAGCG
B4 showed a Kd [2] of 2210 ± 250 nM.

B5: 3xTGAG (dsDNA)
DNA 1: CGTGAGTGAGTGAGCC
DNA 2: GGCTCACTCACTCACG
For B5, the Kd [2] was 1420 ± 170 nM.

B6: TGAA Tail-to-Tail (dsDNA)
DNA 1: CGCCTGAATTCACGCC
DNA 2: GGCGTGAATTCAGGCG
B6 showed a Kd [2] of 1900 ± 200 nM.

B7: TAAT 16-bp (dsDNA)
DNA 1: GTGTTAATGGGTTGTG
DNA 2: CACAACCCATTAACAC
B7 was tested, and the Kd [3] was 1670 ± 200 nM, the Kd [4] was 4590 ± 580 nM and the Kd [5] was 1670 ± 170 nM. B7: binds [6].

B8: f_G-Box (dsDNA)
DNA 1: CATCGTCGTCACGTGATGGG
DNA 2: CCCATCACGTGACGACGATG
With B8 the Kd [7] was 1680 ± 300 nM.

B9: 2xTGAA (dsDNA)
DNA 1: CGCCTGAATGAACGCC
DNA 2: GGCGTTCATTCAGGCG
For B9, the Kd [8] was 1240 ± 140 nM, the Kd [2] was 300 ± 40 nM and the Kd [9] was 800 ± 120 nM. For the same binder, the Kd [10] was 8200 ± 840 nM and the Kd [11] was 6810 ± 870 nM.

B10: TGAA 16-bp (dsDNA)
DNA 1: AGTGTATGAATGAACG
DNA 2: CGTTCATTCATACACT
B10 gave a Kd [3] of 540 ± 70 nM, a Kd [4] of 11000 ± 1620 nM and a Kd [2] of 270 ± 30 nM. The Kd [5] was 320 ± 30 nM.

B11: G-Box 16-bp (dsDNA)
DNA 1: GTCGTCACGTGATGGG
DNA 2: CCCATCACGTGACGAC
For B11, the Kd [2] was 3780 ± 420 nM.

B12: TGAA Head-to-Head (dsDNA)
DNA 1: CGCCTTCATGAACGCC
DNA 2: GGCGTTCATGAAGGCG
In the case of B12, the Kd [2] is reported as 3170 ± 350 nM.

B13: f_TAAT T12C (dsDNA)
DNA 1: GTGTTAATGGGCTGTG
DNA 2: CACAGCCCATTAACAC
B13: binds [12].

B14: 3xTGAT (dsDNA)
DNA 1: CGTGATTGATTGATCC
DNA 2: GGATCAATCAATCACG
In the case of B14, the Kd [2] is reported as 120 ± 10 nM.

B15: 3xTGAA (dsDNA)
DNA 1: CGTGAATGAATGAACC
DNA 2: GGTTCATTCATTCACG
For B15, the Kd [2] was 60 ± 10 nM.

B16: f_TAAT wt 16-bp (dsDNA)
DNA 1: GTGTTAATGGGTTGTG
DNA 2: CACAACCCATTAACAC
B16: binds [12].

B17: 3xTGAA 1xSpacing (dsDNA)
DNA 1: CTGAACTGAACTGAAC
DNA 2: GTTCAGTTCAGTTCAG
With B17 the Kd [2] was 840 ± 120 nM.

B18: 2xTGAA 4xSpacing (dsDNA)
DNA 1: CGTGAAGCGCTGAACC
DNA 2: GGTTCAGCGCTTCACG
B18 was tested, and the Kd [2] was 3580 ± 440 nM.
